US20080038257A1 (AVEO PHARMACEUTICALS, published 2008)
Where two headings read alike, the source gives them in different places.

Tests used:
Test in all cases: cell-based or functional assay
[1] = target: T1, recombinant human HGF (R&D Systems, Catalog No. 294-HGN-025) (human, UniProt P14210 32-728)
[2] = target: T1, recombinant human HGF (R&D Systems, …); remark: listed apart in the source
[3] = target: T1, recombinant human HGF (R&D Systems, …); remark: listed apart in the source
[4] = target: T1, recombinant human HGF (R&D Systems, …); remark: listed apart in the source

T1 sequence (P14210 32-728 limits assumed): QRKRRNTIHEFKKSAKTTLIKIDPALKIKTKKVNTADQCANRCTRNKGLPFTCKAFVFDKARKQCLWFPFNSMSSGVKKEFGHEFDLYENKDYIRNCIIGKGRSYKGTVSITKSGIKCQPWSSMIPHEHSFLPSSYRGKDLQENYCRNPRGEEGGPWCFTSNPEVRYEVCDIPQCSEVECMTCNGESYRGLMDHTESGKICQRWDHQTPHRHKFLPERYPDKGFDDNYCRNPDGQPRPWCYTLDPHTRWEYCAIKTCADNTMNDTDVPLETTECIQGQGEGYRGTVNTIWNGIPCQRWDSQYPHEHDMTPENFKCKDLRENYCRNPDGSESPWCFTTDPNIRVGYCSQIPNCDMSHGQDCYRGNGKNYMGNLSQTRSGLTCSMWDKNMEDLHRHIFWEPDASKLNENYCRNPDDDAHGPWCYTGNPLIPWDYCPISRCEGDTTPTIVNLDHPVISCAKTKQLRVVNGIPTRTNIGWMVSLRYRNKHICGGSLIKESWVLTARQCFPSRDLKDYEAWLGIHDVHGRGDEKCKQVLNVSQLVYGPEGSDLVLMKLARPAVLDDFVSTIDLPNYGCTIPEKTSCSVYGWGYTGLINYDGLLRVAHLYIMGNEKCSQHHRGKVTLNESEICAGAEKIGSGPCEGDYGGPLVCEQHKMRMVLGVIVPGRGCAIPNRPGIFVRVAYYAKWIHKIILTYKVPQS

Row | Binder | EC50 in nM, HGF-stimulated c-Met phosphorylation in PC-3 cells, Average of Two Trials [1] [nM] | IC50 (nM), HGF stimulated BrdU incorporation in 4MBr-5 cells [2] [nM] | HGF-stimulated c-Met phosphorylation in PC-3 cells (assay of Example 9), Average of Two Trials [3] [nM] | IC50 (nM), HGF stimulated BrdU incorporation in 4MBr-5 cells [4] [nM]
1 | anti-hHGF monoclonal antibody 2F8 (antibody, mouse IgG1, kappa, V domains shown) VH: QVQLKQSGAELVRPGTSVKMSCKASGYTFTTYYIHWVNQRPGQGLEWIGKIGPGSGSTYYNEMFKDKATLTVDTSSSTAYMQLSSLTSDDSAVYFCARRGLGRGFDYWGQGTTLTVSS VL: DIVLTQSPASLAVSLGQRATISCKASQSVDYDGNSYINWYQQKPGQPPKVLIYVASNLESGIPARFSGSGSGTDFTLNIHPVEEEDAATYYCQQSIEDPPTFGAGTKLELKR | 1.39 | 19.2 |  | 
2 | anti-hHGF monoclonal antibody 3D11 (antibody, mouse IgG1, kappa, V domains shown) VH: QVQLKESGPGLVAPSQSLSITCTVSGFSLTSYSLHWVRQPPGKGLEWLGVIWAGGNTNYNSSLMSRLTIRKDNSKSQVFLKMNSLQTDDTAMYYCARERFAYWGQGTLVTVSA VL: QIVLTQSPAIMSAYPGEKVTMTCSASSSVSYMHWYQQKSGTSPKRWIYDTSKLASGVPARFSGSGSGTSYSLTISSMEAEDAATYYCQQWSSNPLTFGAGTKLELKR | 2.28 | 51.1 |  | 
3 | HE2B8-1 (LR2B8HC + IgG1 G1m(3) allele 1 plus LR2B8LC + Kappa Km(3) allele 1) (antibody, V domains shown) VH: QVQLVQPGAEVVKPGTSVKLSCKASGYTFTTYWMHWVNQAPGQGLEWIGEINPTNGHTNYNEKFKGKATLTVDKSTSTAYMELSSLRSEDTAVYYCARNYVGSIFDYWGQGTLLTVSS VL: DIVMTQSPDSMAMSVGERVTLNCKASENVVSYVSWYQQKPGQSPKLLIYGASNRNTGVPDRFSGSGSATDFTLTISSVQAEDVADYHCGQSYNYPYTFGQGTKLEIKR |  |  | 0.8 | 0.47
4 | HE2B8-3 (LRMR2B8HC + IgG1 G1m(3) allele 1 plus LR2B8LC + Kappa Km(3) allele 1) (antibody, V domains shown) VH: QVQLVQPGAEVKKPGTSVKLSCKASGYTFTTYWMHWVRQAPGQGLEWIGEINPTNGHTNYNQKFQGRATLTVDKSTSTAYMELSSLRSEDTAVYYCARNYVGSIFDYWGQGTLLTVSS VL: DIVMTQSPDSMAMSVGERVTLNCKASENVVSYVSWYQQKPGQSPKLLIYGASNRNTGVPDRFSGSGSATDFTLTISSVQAEDVADYHCGQSYNYPYTFGQGTKLEIKR |  |  | 0.79 | 0.55
5 | HE2B8-2 (LR2B8HC + IgG1 G1m(3) allele 1 plus LRMR2B8LC + Kappa Km(3) allele 1) (antibody, V domains shown) VH: QVQLVQPGAEVVKPGTSVKLSCKASGYTFTTYWMHWVNQAPGQGLEWIGEINPTNGHTNYNEKFKGKATLTVDKSTSTAYMELSSLRSEDTAVYYCARNYVGSIFDYWGQGTLLTVSS VL: DIVMTQSPDSLAMSLGERVTLNCKASENVVSYVSWYQQKPGQSPKLLIYGASNRESGVPDRFSGSGSATDFTLTISSVQAEDVADYHCGQSYNYPYTFGQGTKLEIKR |  |  | 0.88 | 0.66
6 | HE2B8-4 (LRMR2B8HC + IgG1 G1m(3) allele 1 plus LRMR2B8LC + Kappa Km(3) allele 1) (antibody, V domains shown) VH: QVQLVQPGAEVKKPGTSVKLSCKASGYTFTTYWMHWVRQAPGQGLEWIGEINPTNGHTNYNQKFQGRATLTVDKSTSTAYMELSSLRSEDTAVYYCARNYVGSIFDYWGQGTLLTVSS VL: DIVMTQSPDSLAMSLGERVTLNCKASENVVSYVSWYQQKPGQSPKLLIYGASNRESGVPDRFSGSGSATDFTLTISSVQAEDVADYHCGQSYNYPYTFGQGTKLEIKR |  |  | 0.75 | 0.58
7 | anti-hHGF monoclonal antibody 2B8 (antibody, mouse IgG1, kappa) heavy: QVQLQQPGAELVKPGTSVKLSCKASGYTFTTYWMHWVNQRPGQGLEWIGEINPTNGHTNYNEKFKSKATLTVDKSSSTAYMQLSSLTSEDSAVYYCARNYVGSIFDYWGQGTTLTVSSAKTTPPSVYPLAPGSAAQTNSMVTLGCLVKGYFPEPVTVTWNSGSLSSGVHTFPAVLQSDLYTLSSSVTVPSSTWPSETVTCNVAHPASSTKVDKKIVPRDCGCKPCICTVPEVSSVFIFPPKPKDVLTITLTPKVTCVVVDISKDDPEVQFSWFVDDVEVHTAQTQPREEQFNSTFRSVSELPIMHQDWLNGKEFKCRVNSAAFPAPIEKTISKTKGRPKAPQVYTIPPPKEQMAKDKVSLTCMITDFFPEDITVEWQWNGQPAENYKNTQPIMDTDGSYFVYSKLNVQKSNWEAGNTFTCSVLHEGLHNHHTEKSLSHSPGK light: NIVMTQSPKSMSMSVGERVTLSCKASENVVSYVSWYQQKPAQSPKLLIYGASNRNTGVPDRFTGSGSATDFTLTISSVRAEDLADYHCGQSYNYPYTFGGGTRLEIKRADAAPTVSIFPPSSEQLTSGGASVVCFLNNFYPKDINVKWKIDGSERQNGVLNSWTDQDSKDSTYSMSSTLTLTKDEYERHNSYTCEATHKTSTSPIVKSFNRNEC | 0.287 | 1.41 | 0.91 | 0.86
8 | anti-hHGF monoclonal antibody 3B6 (antibody, mouse IgG1, kappa, V domains shown) VH: QVQLQQSGAELVRPGSSVKISCKASGYVFSSYWMNWVKQRPGQGLEWIGQIYPGDGDSNYNGNFKGKATLTADKSSSTAYMQLSSLTSEDSAVYFCASQLGLRENYFDYWGQGTTLTVSS VL: DIKMTQSPSSMYASLGERVTITCKASQDIKSYLSWFQQKPGKSPKTLIYRVNRLVDGVPSRFSGSGSGQDSSLTITSLENEDMGIYYCLQYDEFPFTFGGGTKLEIKR | 1.01 | 36.1 |  | 
9 | anti-hHGF monoclonal antibody 1A3 (antibody, mouse IgG1, kappa, V domains shown) VH: EVQLVESGGGLVQPGGSLKLSCAASEFTFSNYYMSWVRQTPEKRLQWVAYISPGGGSSYYPASVKGRFTISRDNAKNTLYLQMSSLKSEDTAMYYCARQGDGYYGDYAMDYWGQGTSVTVSS VL: DIQMTQSPASLSVSVGETVTITCRASENIYSNLAWYQQKQGKSPQLLVYAATNLADGVPSRFSGSGSGTQFSLKINSLQSEDFGTYYCQHFWGTPYTFGGGTKLEIKR | 0.684 | 4.69 |  | 
10 | anti-hHGF monoclonal antibody 1D3 (antibody, mouse IgG1, kappa, V domains shown) VH: EVQLVESGGGLVQPGGSLKLSCAASGFTFSDYYMSWVRQTPEKRLEWVAYISSGGGSTYYPDSVKGRFTISRDNAKNTLYLQMSSLKSEDTAIYYCVRQGDGYYGDYAMDYWGQGTSVIVSS VL: DIQMTQSPASLSVSVGETVTITCRTSENIYSNLAWYQQKQGKSPQLLIYAATNLADGVPSRFSGSGSGTQFSLRINSLQSEDFGRYYCQHFWGTPYTFGGGTKLEIKR | 0.984 | 4.99 |  | 
11 | anti-hHGF monoclonal antibody 1F3 (antibody, mouse IgG1, kappa, V domains shown) VH: EVQLVESGGGLVQSGGSLKLSCAASGFTFSNYFMSWVRQTPEKRLEWVAYISSGGGSTYYPDSVKGRFTISRDNAKNTLYLQMSSLKSEDTAMYYCVRQGDGYYGDYAMDYWGQGTSVTVSS VL: DIQMTQSPASLSVSVGETVTITCRASENIYSNLAWYQQKQGKSPQLLVYDATHLPDGVPSRFSGSGSGTQFSLKINSLQSEDFGSYYCQHFWGTPYTFGGGTRLEIKR | 1.19 | 1.94 |  | 
12 | anti-hHGF monoclonal antibody 3A12 (antibody, mouse IgG1, kappa, V domains shown) VH: EVQLVESGGGLVQPGGSLKISCAASGFTFSNYFMSWVRQTPEKRLEWVAYISSGGGSTYYPDSVKGRFTISRDNAKNTLYLQMNSLKSEDTAMYYCVRQGDGYYGDYAMDYWGQGTSVTVSS VL: DIQMTQSPASLSVSVGETVTITCRASENIYINLAWYQQKQGKSPQLLVHAATKLADGVPSRFSGSGSGTQYSLKINSLQSEDFGSYYCQHFWGTPYTFGGGTKLEIKR | 2 | 30.3 |  | 
13 | sh2B8-9 (G1m(3)) = hu2B8 Hv5-51.1 + IgG1 constant G1m(3) allele 2 plus hu2B8 Kv1-39.1 + Kappa Km(3) allele 2 (antibody) heavy: not shown light: DIQMTQSPSSLSASVGDRVTITCKASENVVSYVSWYQQKPGKAPKLLIYGASNRNTGVPSRFSGSGSGTDFTLTISSLQPEDFATYYCGQSYNYPYTFGQGTKLEIKRTVAAPSVFIFPPSDEQLKSGTASVVCLLNNFYPREAKVQWKVDNALQSGNSQESVTEQDSKDSTYSLSSTLTLSKADYEKHKVYACEVTHQGLSSPVTKSFNRGEC |  |  | 0.93 | 0.52
